The chains are these.
B1: HW-42 chimeric rabbit-human IgG1 LA/LA/PG (antibody, V domains shown)
VH: QSVKESEGGLFKPADTLTLTCTVSGFSLSSNEISWVRQAPGEGLEYIGIIDTGGRAYYAVWARSRSTITRNTNLNTVTLKMTSLTAADTATYFCARGGVDTEWYAFSSWGPGTLVTVPS
VL: SFVLTQPASVQVNLGQTVSLTCTADTLSRRYASWYQQKPGQAPVLLIFRDTSRPSGVPDRFSGSSSGDTATLTISGAQAGDEADYYCATSDGSGSNYQYVFGGGTQLTVTG
notes: Fc-silenced (L234A/L235A/P329G) IgG1, lambda; Alexa Fluor 647-labeled in single-step flow cytometry; Cluster C-1
B2: HW-70 chimeric rabbit-human IgG1 LA/LA/PG (antibody, V domains shown)
VH: QSLEESGGRLVTPGTPLTLTCTVSGFSLSSNAMSWVRQAPGKGLEWIGTIDGYGYTYYASWAKGRFTVSKTSTTVDLKITSPTTEDTATYFCAREIYLGSNFWGPGTLVTISS
VL: B1 VL with F48Y, D68N, S90A, N96S, Y99F
notes: as for B1
B3: HW-1 chimeric rabbit-human IgG1 LA/LA/PG (antibody, V domains shown)
VH: QSLEESGGGLFKPTDTLTLTCTASGFSLGSSYAISWVRQAPGKELEWIGTIDSGRAYYARWAKSRSTITRNTNENTVTLKMTSLTAADTATYFCARDLIPTYSQDIWGPGTLVTISS
VL: B1 VL with F48Y, D68N, S95N, N96S, G111S
notes: Fc-silenced (L234A/L235A/P329G) IgG1, lambda; Alexa Fluor 647-labeled in single-step flow cytometry; Prototype of cluster C-1
B4: HW-25 chimeric rabbit-human IgG1 LA/LA/PG (antibody, V domains shown)
VH: QSLEESGGRLVTPGTPLTLTCTVSGFSLSSYAMGWVRQAPGKGLEWIGIIDSRGSTYYATWAKGRFTISKTSTTVDLKITSPTTEDTATYFCAREDSYYYDSFNLWGPGTLVTVSS
VL: B1 VL with F48Y, D68N, N96S, Y99C
notes: as for B1
B5: TH9-0022 (antibody, human IgG1, kappa, L234A L235A, V domains shown)
VH: QSLEESGGRLVTPGTPLTLTCTVSGFSLSSYAMNWVRQAPGKGLEWIGIINSYGSTYYASWAKGRFTISKTSTTVDLKITSPTTEDTATYFCARVTYDSYGYGYAPYGMDLWGPGTLVTVSS
VL: LVMTQTPSSTSNAVGGTVTIKCQASQSIGNVLAWYQQKPGQPPKLLIYAASTLASGVPSRVGGSRSGTEYTLTISGVQREDAATYYCLGSDSDSDIAFGGGTELEILR
notes: also called TH9-022; negative control
B6: HW-28 chimeric rabbit-human IgG1 LA/LA/PG (antibody, V domains shown)
VH: QKQLVESGGRLVTPGTPLTLTCTASGFSLSSNAMSWVRQAPGEGLQWIGTISSGGSTYYASWAKGRFTISKTSTTVTLKMTSLTTEDTATYFCARGADLHRLWGPGTLVTVSS
VL: B1 VL with A24G, D25K, T26P, R30S, Y31F, L46V, F48Y, D68N, N96S
notes: Fc-silenced (L234A/L235A/P329G) IgG1, lambda; Alexa Fluor 647-labeled in single-step flow cytometry; Cluster C-45
B7: HW-45 chimeric rabbit-human IgG1 LA/LA/PG (antibody, V domains shown)
VH: QKQLVESGGRLVTPGTPLTLTCTVSGFSLSSYAMGWFRQAPGKGLEWIGIINSYGSTYYASWAKGRFTISKTSTTVDLKITSPTTEDTATYFCGRRIGSARFDPWGPGTLVTVSS
VL: B1 VL with R30S, F48Y, S52R, D68N, N96S, Q98R, Y99L
notes: Fc-silenced (L234A/L235A/P329G) IgG1, lambda; Alexa Fluor 647-labeled in single-step flow cytometry; Prototype of cluster C-45

The text below walks through data of US20260049134A1 (UNIVERSITY OF FLORIDA RESEARCH FOUNDATION, published 2026).

Substitutions are numbered along the chain they refer to. Numbers in names are those of the source.

For the first assay, the target named is T1, HHLA2 (B7-H7).
T1 construct: coated protein in the ELISA; also called HHLA2-Fc (R&D Systems)
T1 chain: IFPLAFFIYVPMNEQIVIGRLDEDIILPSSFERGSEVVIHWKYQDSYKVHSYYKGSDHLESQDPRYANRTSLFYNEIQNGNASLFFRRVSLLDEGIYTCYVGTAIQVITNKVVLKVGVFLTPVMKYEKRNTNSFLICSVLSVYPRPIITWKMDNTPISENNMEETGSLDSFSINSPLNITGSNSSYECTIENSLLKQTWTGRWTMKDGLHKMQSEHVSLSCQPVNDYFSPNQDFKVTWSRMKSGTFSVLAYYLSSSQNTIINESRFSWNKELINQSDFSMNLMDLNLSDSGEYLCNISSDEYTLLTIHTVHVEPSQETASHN
The assay can be described thus: ELISA on coated HHLA2-Fc. How it is done: (§1) Recombinant purified ECDs (50-150 ng) of each putative target protein were coated, incubated with 150 ng of the indicated primary antibody, and binding was detected using a peroxidase-conjugated anti-human Fab secondary antibody. Heatmap represents averages of technical triplicates. (8B) Target validation via siRNA knockdown. H929 cells were transfected with siRNA pools targeting the putative antibody targets ICAM1, CADM1, and PTPRG. Cells were then subjected to cognate IgG binding analysis via flow cytometry. (NT, non-targeting siRNA).
(§2) ELISA ELISA was conducted as described previously. Briefly, 50-150 ng of antigen was coated overnight in half-area 96-well plates at 4° C., blocked with 3% BSA at 37° C. for 1 h, and 150 ng of chimeric rabbit/human IgG1 was added, incubating for 2 h at 37° C. […] After incubating at 37° C. for 15 min-1 h (depending on intensity of controls), data were acquired using a SpectraMax M5 plate reader (Molecular Devices).
(In general: In an ELISA, binding on a coated surface is turned into a signal by an enzyme label.)
As for B1, the binding result was “no binding (tested: 150 ng IgG1 per well)”.
The same measure, in the same setting: the result for B2 reads “no binding (tested: 150 ng IgG1 per well)”.
For B3, the binding result is listed as “no binding (tested: 150 ng IgG1 per well)”.
In the case of B4, the binding result is “no binding (tested: 150 ng IgG1 per well)”.
On the same count and under the same terms, the result for B5 reads “no binding (tested: 150 ng IgG1 per well)”.

In the next assay the target is T2, ANXA1.
T2 construct: coated protein in the ELISA; also called ANXA1-His (R&D Systems)
T2 chain: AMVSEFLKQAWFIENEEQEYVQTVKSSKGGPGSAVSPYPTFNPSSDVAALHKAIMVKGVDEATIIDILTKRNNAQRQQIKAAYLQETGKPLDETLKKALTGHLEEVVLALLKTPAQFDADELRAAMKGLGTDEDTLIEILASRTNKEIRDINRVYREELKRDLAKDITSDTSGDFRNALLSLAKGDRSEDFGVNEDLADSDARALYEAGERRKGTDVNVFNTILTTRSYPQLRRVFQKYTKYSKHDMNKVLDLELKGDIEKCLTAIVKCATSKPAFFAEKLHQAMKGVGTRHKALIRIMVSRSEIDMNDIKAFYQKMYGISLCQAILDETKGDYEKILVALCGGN
The assay can be described thus: ELISA on coated ANXA1-His. How it is done:
as §1, §2
Regarding B1, the binding result is “no binding (tested: 150 ng IgG1 per well)”.
For the molecule B2, the binding result is “no binding (tested: 150 ng IgG1 per well)”.
On the same count and under the same terms, the result for B3 reads “no binding (tested: 150 ng IgG1 per well)”; that for B4, “no binding (tested: 150 ng IgG1 per well)”.
Take B5: the binding result is recorded as “no binding (tested: 150 ng IgG1 per well)”.

The target of another assay is T3, PTP4A3 (PRL-3).
T3 construct: coated protein in the ELISA; also called His-PTP4A3 (R&D Systems)
T3 sequence (chain, as listed by the source limits assumed): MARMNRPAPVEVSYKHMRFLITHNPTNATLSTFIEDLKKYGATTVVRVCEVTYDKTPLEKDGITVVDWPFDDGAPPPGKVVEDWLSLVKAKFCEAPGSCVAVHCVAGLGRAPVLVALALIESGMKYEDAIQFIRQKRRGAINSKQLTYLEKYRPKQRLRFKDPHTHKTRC
Nature of the assay: ELISA on coated His-PTP4A3. As for the experimental part: as §1, §2
Consider B1, for which the binding result is recorded as “no binding (tested: 150 ng IgG1 per well)”.
Turning to B2, the binding result is recorded as “no binding (tested: 150 ng IgG1 per well)”.
For the molecule B3, the binding result is “no binding (tested: 150 ng IgG1 per well)”.
B4: the binding result was “no binding (tested: 150 ng IgG1 per well)”.
Take B5: the binding result was “no binding (tested: 150 ng IgG1 per well)”.

Another assay deals with T4, APP.
T4 construct: His-tagged; coated protein in the ELISA; also called APP-His (Acro Biosystems)
The assay can be described thus: ELISA on coated APP-His, 150 ng IgG1; None 0.092. How it is done: as §1, §2
For B1, the “ELISA Absorbance (405 nm-570 nm)” value was found to be 0.087.
The same measure, in the same setting: the result for B2 reads 0.089.
As to B3, the “ELISA Absorbance (405 nm-570 nm)” value came to 0.071.
B6: the “ELISA Absorbance (405 nm-570 nm)” value came out at 0.144.
Consider B4, for which the “ELISA Absorbance (405 nm-570 nm)” value amounted to 0.066.
In the case of B7, the “ELISA Absorbance (405 nm-570 nm)” value was determined as 0.233.
On to B5, for which the “ELISA Absorbance (405 nm-570 nm)” value turned out to be 0.082.

The target in a further assay is T5, GARS-His (Sino Biological) (human, UniProt P41250 37-739, limits assumed).
T5 construct: Bought; also called GARS1; glycyl-tRNA synthetase; not shown: His tag of the bought protein
T5 sequence: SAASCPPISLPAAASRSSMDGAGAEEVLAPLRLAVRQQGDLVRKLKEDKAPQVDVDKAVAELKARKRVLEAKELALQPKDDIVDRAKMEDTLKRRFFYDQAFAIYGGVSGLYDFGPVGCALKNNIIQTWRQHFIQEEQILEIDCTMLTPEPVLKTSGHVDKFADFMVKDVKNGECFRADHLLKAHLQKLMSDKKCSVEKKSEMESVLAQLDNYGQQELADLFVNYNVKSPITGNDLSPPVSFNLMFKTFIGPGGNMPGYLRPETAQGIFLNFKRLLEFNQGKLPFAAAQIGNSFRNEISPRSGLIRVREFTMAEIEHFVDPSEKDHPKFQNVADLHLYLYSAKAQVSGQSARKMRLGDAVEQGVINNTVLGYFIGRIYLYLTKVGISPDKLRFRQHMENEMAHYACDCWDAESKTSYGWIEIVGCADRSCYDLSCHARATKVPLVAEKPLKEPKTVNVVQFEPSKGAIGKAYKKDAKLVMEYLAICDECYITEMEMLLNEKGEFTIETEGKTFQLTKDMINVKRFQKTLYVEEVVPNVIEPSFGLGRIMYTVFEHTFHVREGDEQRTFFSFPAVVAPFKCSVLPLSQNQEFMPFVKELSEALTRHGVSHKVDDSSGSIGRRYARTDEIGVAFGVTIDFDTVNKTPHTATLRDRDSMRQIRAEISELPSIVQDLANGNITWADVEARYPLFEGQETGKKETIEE
Nature of the assay: ELISA on coated GARS-His, 150 ng IgG1; None 0.099. How it is done:
as §1, §2
With B1, the “ELISA Absorbance (405 nm-570 nm)” value came out at 0.099.
Same read-out and setting: the result for B2 reads 0.087; that for B3, 0.091.
As for B6, the “ELISA Absorbance (405 nm-570 nm)” value amounted to 0.628.
For the molecule B4, the “ELISA Absorbance (405 nm-570 nm)” value amounted to 0.103.
Turning to B7, the “ELISA Absorbance (405 nm-570 nm)” value was 0.741.
Still for that read-out and setting: then B5, with 0.098.

The next assay has as its target T1, HHLA2 (B7-H7). The assay can be described thus: ELISA on coated HHLA2-Fc, 150 ng IgG1; None 0.087. As for the experimental part:
as §1, §2
Consider B1, for which the “ELISA Absorbance (405 nm-570 nm)” value came out at 0.097.
Still for that read-out and setting: then B2, with 0.088; and B3, with 0.075.
B6: the “ELISA Absorbance (405 nm-570 nm)” value stood at 0.122.
With B4, the “ELISA Absorbance (405 nm-570 nm)” value was 0.066.
As to B5, the “ELISA Absorbance (405 nm-570 nm)” value stood at 0.086.

Another assay has as its target T2, ANXA1. Nature of the assay: ELISA on coated ANXA1-His, 150 ng IgG1; None 0.098. How it is done:
as §1, §2
Consider B1, for which the “ELISA Absorbance (405 nm-570 nm)” value is 0.103.
As for B2, the “ELISA Absorbance (405 nm-570 nm)” value came to 0.102.
Same read-out and setting: then B3, with 0.085; and B6, with 0.153.
Take B4: the “ELISA Absorbance (405 nm-570 nm)” value was 0.065.
On to B5, for which the “ELISA Absorbance (405 nm-570 nm)” value turned out to be 0.09.

A further assay deals with T6, IL13RA1.
T6 construct: coated protein in the ELISA; also called IL13RA1-Fc-His (R&D Systems)
T6 chain: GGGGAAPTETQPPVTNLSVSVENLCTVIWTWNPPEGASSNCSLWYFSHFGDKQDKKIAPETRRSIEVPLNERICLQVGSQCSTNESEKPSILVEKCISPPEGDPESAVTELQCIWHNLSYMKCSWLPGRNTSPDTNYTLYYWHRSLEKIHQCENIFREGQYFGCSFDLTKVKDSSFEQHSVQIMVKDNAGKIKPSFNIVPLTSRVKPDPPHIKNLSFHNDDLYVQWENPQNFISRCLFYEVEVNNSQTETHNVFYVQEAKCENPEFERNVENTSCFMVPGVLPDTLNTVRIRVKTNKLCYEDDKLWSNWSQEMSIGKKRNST
The assay can be described thus: ELISA on coated IL13RA1-Fc-His, 150 ng IgG1; None 0.094. As for the experimental part:
as §1, §2
In the case of B1, the “ELISA Absorbance (405 nm-570 nm)” value stood at 0.102.
Still for that read-out and setting: the result for B2 reads 0.085; that for B3, 0.08.
In the case of B4, the “ELISA Absorbance (405 nm-570 nm)” value amounted to 0.074.
Turning to B5, the “ELISA Absorbance (405 nm-570 nm)” value turned out to be 0.08.
